# Laboratory results published in paper PMC11197762 (Fundamental Research, 2022).
# Molecular target: GST-p53, full-length, wild-type (human, UniProt P04637 1-393)
# Experiment: pull-down
# GST-p53, full-length, wild-type, sequence (P04637 whole entry): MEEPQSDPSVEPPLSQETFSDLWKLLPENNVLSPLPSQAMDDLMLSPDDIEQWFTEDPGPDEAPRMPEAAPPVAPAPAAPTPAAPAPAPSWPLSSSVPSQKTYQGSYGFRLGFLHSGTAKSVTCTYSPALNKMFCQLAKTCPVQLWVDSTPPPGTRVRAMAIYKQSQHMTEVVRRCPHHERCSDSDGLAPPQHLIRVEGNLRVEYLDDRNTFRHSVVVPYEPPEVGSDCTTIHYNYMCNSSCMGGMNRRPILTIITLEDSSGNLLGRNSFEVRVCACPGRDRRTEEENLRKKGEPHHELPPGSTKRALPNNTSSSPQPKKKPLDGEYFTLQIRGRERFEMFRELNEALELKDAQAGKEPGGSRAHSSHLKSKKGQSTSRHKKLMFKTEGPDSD
binder,measurement,value
"BRD4 basic residue-enriched interaction domain (BID, aa 524-579), purified (domain or fragment) QLAALSQPQQNKPKKKEKDKKEKKKEKHKRKEEVEENKKSKAKEPPPKKTKKNNSS",binding result,binds
